The values that follow come from publication PMC12406269 (2025).

The target of test [1] is T1, human ISG15 (C78S) (human, UniProt P05161 1-157, C78S). Nature of the test: BLI. Background: Biolayer interferometry detects binding as a change in optical thickness at a sensor tip.
Test [2] concerns the target T1, human ISG15 (C78S). Briefly: BLI. The source holds these as a separate data set.

T1 sequence (P05161 1-157 C78S): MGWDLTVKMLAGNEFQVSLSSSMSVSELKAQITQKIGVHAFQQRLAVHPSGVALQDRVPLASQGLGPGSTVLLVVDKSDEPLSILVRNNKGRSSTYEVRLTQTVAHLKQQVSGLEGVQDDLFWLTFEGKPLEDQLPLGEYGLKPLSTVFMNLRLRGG

B1: C-terminally biotin-tagged VHH_(ISG15-A) (VHH)
VHH: QLQLVETGGGLVQAGGSLRLSCAASGRTFAGLSVKWFRQPPGAEREWVAHITSTGSSTHYADSVKGRFTISRDYDRNMVYLQMSSLKPEDTAVYYCHASTLWPEKHQDYWGQGIQVTVSS
modifications: biotin at the C-terminus (sortase reaction with GGG-Biotin replaces the C-terminal HA tag)
For the molecule B1, binding with human ISG15 (C78S) [1] was characterised by a dissociation constant (Kd) of 101 nM. The koff (as a rule, the rate constant with which the complex falls apart) with human ISG15 (C78S) [2] turned out to be 0.012 s⁻¹.

B2: C-terminally biotin-tagged VHH_(ISG15-B) (VHH)
VHH: QVQLVETGGGLVEPGGSLRLSCTVSGINFSSQFMAWFRQGPGKQREWVAIDAGEENVGYLDLVEGRFTISRDTARNTLYLQMNSLKPEDTAVYYCNIFPVLPDSRWGQGTQVTVSS
modifications: biotin at the C-terminus (sortase reaction with GGG-Biotin replaces the C-terminal HA tag)
As for B2, the equilibrium dissociation constant (Kd) – broadly, the free concentration of one partner at which half of the binding sites on the other are occupied at equilibrium, for simple one-to-one binding – with human ISG15 (C78S) [1] was 2.88 nM. The same molecule gave a koff with human ISG15 (C78S) [2] of 0.00388 s⁻¹.
